This is an account of results in patent publication US20040248211A1, “ICAM-related protein” (priority 1992, published 2004).

One assay has as its target T1, soluble ICAM-R (Homo sapiens, UniProt P32942).
T1 construct: made in house; host or cells: Sf-9 insect cells, recombinant baculovirus (pBBIII.ICAM-Rt1), purified on Lentil Lectin Sepharose
T1 sequence (P32942 30-485 limits assumed): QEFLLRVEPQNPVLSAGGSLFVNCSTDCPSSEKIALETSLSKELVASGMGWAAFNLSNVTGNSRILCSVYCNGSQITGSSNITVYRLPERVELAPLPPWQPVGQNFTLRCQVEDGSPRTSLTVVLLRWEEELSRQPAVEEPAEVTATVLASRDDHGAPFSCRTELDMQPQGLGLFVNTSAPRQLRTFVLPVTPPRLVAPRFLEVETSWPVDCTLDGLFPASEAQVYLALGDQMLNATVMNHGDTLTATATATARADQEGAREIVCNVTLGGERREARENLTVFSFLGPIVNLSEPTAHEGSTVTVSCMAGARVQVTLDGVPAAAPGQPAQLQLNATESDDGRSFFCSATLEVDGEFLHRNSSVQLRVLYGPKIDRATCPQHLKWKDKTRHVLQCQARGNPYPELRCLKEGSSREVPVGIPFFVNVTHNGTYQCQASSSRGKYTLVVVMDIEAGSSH
Briefly: ELISA binding to soluble ICAM-R coated onto plastic. The note with it: serially diluted purified antibody; 50% maximal binding. On the procedure:
Nine of the purified anti-ICAM-R monoclonal antibodies were diluted serially and assayed in an ELISA format for binding to a fixed amount of soluble ICAM-R (Example 9) coated onto plastic. The results of the assay are presented in Table 3 below wherein high affinity binding was defined as 50% maximal binding at a monoclonal antibody concentration of less than 1 μg/ml and low affinity binding was defined as 50% maximal binding at a monoclonal antibody concentration of greater than 1 μg/ml.
(An ELISA detects its analyte on a solid surface through an enzyme-linked reagent.)

Assay [1] deals with binding of JY cells (CD18+) to recombinant soluble human ICAM-R. Briefly: JY cell adhesion to recombinant soluble human ICAM-R. In kind it is cell-based. The note with it: for Inhibition (%) of total CD18-dependent binding: antibody 10 μg/ml, PMA-treated JY cells, total = adhesion blocked by anti-CD18 60.3. On the procedure:
The partially purified shICAM-R protein was assayed for binding to SKW3 cells that were pretreated with phorbol ester as described in Example 7 to activate LFA-1-dependent adhesion. The ICAM-R protein was coated onto 96-well Immulon 4 (Dynatech) plates after adjusting the lectin eluate to 25 mM carbonate pH 9.6 and incubated overnight at 4° C. The plates were washed two times with PBS, blocked for 30 minutes at 37° C. with 200 ul/well PBS, 1% BSA, and washed again with PBS before adding cells. SKW3 cells were washed in serum-free RPMI (Gibco), labelled with Calcein-AM (Molecular Probes), and stimulated with PMA. Cells were then added to the plates and incubated for 1 hour at 37° C. The plates were inverted in prewarmed PBS, 1% BSA and were incubated for 30 minutes. The plates were then removed and half of the contents of each well was aspriated. The plates were then scanned with a fluorescence microscope and an automated fluorescence reader.
ICAM-R specific monoclonal antibodies listed in Table 11 in Example 22 were tested for their ability to inhibit binding of JY cells (CD18^+) to recombinant soluble human ICAM-R. Adhesion assays were performed as described in Example 9. Cells were treated with PMA and antibodies were then added at a final concentration of 10 μg/ml. Data was collected from triplicate wells during three independent experiments. Total CD18-dependent binding was determined as the amount of adhesion blocked by a control anti-CD18 monoclonal antibody 60.3. The percentage of total CD18-dependent binding that was inhibited by each monoclonal antibody is shown below in Table 4 wherein the names assigned to monoclonal antibodies produced by each hybridoma are given and “ND” indicates the antibody was not tested. The monoclonal antibody names are used throughout the following examples instead of hybridoma designations.

The subject of another assay is human PBL. Put plainly: SEA-induced proliferation of PBL. It is filed as cell-based. The note with it: for proliferation in response to SEA, plate-bound antibody: 3 days, 3H-thymidine.
In assay [2] the test system is PBMC responder and irradiated stimulator cells. Briefly: Alloantigen-induced lymphocyte proliferation. In kind it is cell-based, human. On the procedure:
Monoclonal antibodies to ICAM-R were also tested for the ability to alter lymphocyte proliferation (as measured by ^3H-thymidine incorporation) in response to alloantigenic irradiated stimulator cells. Responder cells were prepared by obtaining PBMC from a normal donor using Histopaque centrifugation as described above. To prepare stimulator cells, PBMC from a second, unrelated donor were concurrently isolated and irradiated at 1500R by exposure to a gamma emitting cesium source. Two hundred thousand responder cells and 2×10^5 irradiated stimulator cells (suspended in culture medium) were then added to wells containing soluble or immobilized ICR-1.1, ICR-2.1, ICR-3.1, ICR-4.2, ICR-5.1, ICR-6.2, ICR-7.1, ICR-8.1, ICR-9.2, immobilized B-H9, immobilized p10.1, or soluble 515F (anti-rat CD18) antibody and incubated for 6 days at 37° C., 5% CO2. Lymphocyte proliferation (^3H-thymidine incorporation) was assessed in the last 18-24 hours of culture.

The test system of a further assay is Monocytes. Put plainly: IL-8 release from monocytes. It is filed as cell-based, human. The note with it: wells coated 10 μg/ml. On the procedure:
(§1) Monocytes were isolated by elutriation from peripheral blood of normal donors. […] After blocking free sites, the cells were placed into the wells in medium. […] Those cells plated in wells treated with BSA plus or minus LPS were rounded and not spread. After 8 or 18 hours of incubation at 37° C., the medium was removed and assayed for IL-8 immunoreactivity. […] By 18 hours, IL-8 levels in media from ICR monoclonal antibody wells were much elevated over control levels. […] Similar experiments with monocytic cell lines (U937 and HL60) to determine if ICR monoclonal antibody can induce IL-8 release were conducted. U937 cells responded to each of the ICR monoclonal antibody treated wells by releasing IL-8 into the conditioned medium. […] No detectable morphological changes were detected with the U937 or HL60 cells.

Another assay concerns U937 cells. Put plainly: IL-8 release from U937. In kind it is cell-based, human. On the procedure:
as §1

The IC50 is the midpoint of a concentration-inhibition curve. Lower therefore signals inhibition by little substance.

B1: ICR-1.1: anti-ICAM-R monoclonal antibody, IgG2a, domain 1, ATCC HB 11053 (antibody, V domains shown)
VH: QVQLQQSGAELAKPGASVKMSCKASGYTFTVYWMHWVKQRPGQGLEWIGYINPNTDYTEYNQRFQDKATLTADKSSSTAYMQLSSLTSEDSAVYYCARWGGNSYGLDYWGQGTSVTVSS
VL: QIVLTQSPALMSASPGEKVTMTCSASSSVSYIYWYQQKPRSSPKPWIYLTSNLASGVPARFSGSGSGASYSLTISIMEAEDAATYYCQQWKSIPLTFGAGTKLELK
As to B1, in the assay with soluble ICAM-R, the Affinity result is recorded as “Low (50% maximal binding at a monoclonal antibody concentration of greater than 1 μg/ml)”. Further, in assay [1], the “Blockade of Adhesion of JY Cells to Soluble ICAM-R” value was “YES” and the “Inhibition (%) of total CD18-dependent binding” value stood at 45%. In the assay with human PBL, the “Blockade of Lymphocyte Activation SEA” value is “YES” and the “proliferation in response to SEA, plate-bound antibody” value is “significantly inhibited proliferation”. Also, in the assay with human PBL (from logistic dose response curves, proliferation versus control antibodies), the “IC50” value turned out to be 63 µg/mL. Also, the “Blockade of Lymphocyte Activation Alloantigen” value in assay [2] was “YES”. Moreover, the “alloantigen proliferation, immobilized antibody” value in assay [2] (6 days) is given as “consistently reduced proliferation”. In the assay on Monocytes, the “IL-8 level at 18 hours over the level at the 8 hour time point” value is recorded as “ten times”. Besides, the “IL-8 release relative to ICR-4.2, 6.2 or 8.1 treated wells” value in the assay on U937 cells is reported as 3 fold.

B2: ICR-8.1: anti-ICAM-R monoclonal antibody, IgG1, domain 1, ATCC HB 11232 (antibody, V domains shown)
VH: EIQLQQTGPELVKPGASVKISCKASGYSFTDCIILWVKQSHGKGLEWIGKINPYFGTTTYNLKFKGKATLTVDKSSSTAHMQLNSLTSEDSAVYYCARKEAYPDAMDYWGQGTSVTVSS
VL: DAVMTQTPLSLPVSLGDQASISCRSSQSLVHSNGDTYLHWYLQKPGQSPQLLIYKVSNRFSGVPDRFSGSGSGTDFTLKLSRVEAEDLGVYFCSQSTHVPYTFGGGTKLEIK
As for B2, the Affinity entry with soluble ICAM-R was “High (50% maximal binding at a monoclonal antibody concentration of less than 1 μg/ml)”. Besides, in assay [1], the “Blockade of Adhesion of JY Cells to Soluble ICAM-R” value is listed as “YES” and the “Inhibition (%) of total CD18-dependent binding” value was found to be 75%. Further, in the assay on human PBL, the “Blockade of Lymphocyte Activation SEA” value was “YES” and the “proliferation in response to SEA, plate-bound antibody” value was “significantly inhibited proliferation”. Further, the “Blockade of Lymphocyte Activation Alloantigen” value in assay [2] is listed as “YES”. Also, in assay [2] (6 days), the “alloantigen proliferation, immobilized antibody” value is on record as “consistently reduced proliferation” and the “alloantigen proliferation, soluble antibody” value is given as “inhibited alloantigen-stimulated proliferation”. Further, in the assay on Monocytes, the “IL-8 level at 18 hours over the level at the 8 hour time point” value is “two times”. For the same molecule, the “IL-8 release relative to the BSA control” value in the assay with U937 cells is “twice”.
